Reference: patent US20190292229A1 (COMMISSARIAT A L ENERGIE ATOMIQUE ET AUX ENERGIES …, published 2019)

Target: T1, N1-525 with an Histidine tag (full length measles virus nucleoprotein, Edmonston strain) (measles virus (Edmonston strain), UniProt P0DXN6 1-525)
T1 construct: also called full length N
T1 sequence: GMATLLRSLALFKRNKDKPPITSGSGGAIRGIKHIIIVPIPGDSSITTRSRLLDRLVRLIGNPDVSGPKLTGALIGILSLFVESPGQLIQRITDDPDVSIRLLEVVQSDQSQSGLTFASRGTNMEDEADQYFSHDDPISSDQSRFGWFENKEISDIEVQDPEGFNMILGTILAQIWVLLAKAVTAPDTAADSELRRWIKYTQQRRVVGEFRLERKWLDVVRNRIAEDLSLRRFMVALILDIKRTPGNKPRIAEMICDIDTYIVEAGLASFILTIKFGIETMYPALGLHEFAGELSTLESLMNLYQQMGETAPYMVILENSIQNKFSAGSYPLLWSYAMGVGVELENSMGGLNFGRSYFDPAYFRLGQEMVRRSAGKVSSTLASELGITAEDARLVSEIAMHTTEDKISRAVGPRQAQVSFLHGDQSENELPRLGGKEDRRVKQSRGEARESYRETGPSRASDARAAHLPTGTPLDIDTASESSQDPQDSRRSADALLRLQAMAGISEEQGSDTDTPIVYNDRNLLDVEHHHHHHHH
Test: co-expression, TEV cleavage, SAXS and SEC-MALLS

B1: P1-50 with a TEV peptide amino acid sequence (first 50 amino acids of measles virus phosphoprotein, Edmonston strain, after TEV cleavage) (peptide)
peptide: MAEEQARHVKNGLECIRALKAEPIGSLAIEEAMAAWSEISDNPGQERATCENLYFQN
notes: Produced as a P1-50-TEV site-N fusion in E. coli and cleaved with TEV; also called P1-50 peptide; minimal P peptide
**Q.** Does B1 bind?
**A.** Result: binds
